The values that follow come from patent US20240368668A1, “SUBSTRATES AND BIOMARKERS OF ADAMTS7” (The Broad Institute, Inc., priority 2021, published 2024).

Square brackets hold non-standard residues; d marks the D form. Ends that are not written are not given here. Met(O) = CS(=O)CC[C@H](N)C(=O)O

In the assay the target is T1, mouse ADAMTS7 (Mus musculus, UniProt Q68SA9, E373Q).
T1 construct: Full-length mouse Adamts7 1-1857 (Uniprot Q68SA9, WT or E373Q catalytic mutant); expressed in transfected cells; host or cells: Human Coronary Artery Smooth Muscle Cells (HCA-SMC, Lonza), adenovirus 50 MOI
T1 sequence (Q68SA9 221-1657 E373Q): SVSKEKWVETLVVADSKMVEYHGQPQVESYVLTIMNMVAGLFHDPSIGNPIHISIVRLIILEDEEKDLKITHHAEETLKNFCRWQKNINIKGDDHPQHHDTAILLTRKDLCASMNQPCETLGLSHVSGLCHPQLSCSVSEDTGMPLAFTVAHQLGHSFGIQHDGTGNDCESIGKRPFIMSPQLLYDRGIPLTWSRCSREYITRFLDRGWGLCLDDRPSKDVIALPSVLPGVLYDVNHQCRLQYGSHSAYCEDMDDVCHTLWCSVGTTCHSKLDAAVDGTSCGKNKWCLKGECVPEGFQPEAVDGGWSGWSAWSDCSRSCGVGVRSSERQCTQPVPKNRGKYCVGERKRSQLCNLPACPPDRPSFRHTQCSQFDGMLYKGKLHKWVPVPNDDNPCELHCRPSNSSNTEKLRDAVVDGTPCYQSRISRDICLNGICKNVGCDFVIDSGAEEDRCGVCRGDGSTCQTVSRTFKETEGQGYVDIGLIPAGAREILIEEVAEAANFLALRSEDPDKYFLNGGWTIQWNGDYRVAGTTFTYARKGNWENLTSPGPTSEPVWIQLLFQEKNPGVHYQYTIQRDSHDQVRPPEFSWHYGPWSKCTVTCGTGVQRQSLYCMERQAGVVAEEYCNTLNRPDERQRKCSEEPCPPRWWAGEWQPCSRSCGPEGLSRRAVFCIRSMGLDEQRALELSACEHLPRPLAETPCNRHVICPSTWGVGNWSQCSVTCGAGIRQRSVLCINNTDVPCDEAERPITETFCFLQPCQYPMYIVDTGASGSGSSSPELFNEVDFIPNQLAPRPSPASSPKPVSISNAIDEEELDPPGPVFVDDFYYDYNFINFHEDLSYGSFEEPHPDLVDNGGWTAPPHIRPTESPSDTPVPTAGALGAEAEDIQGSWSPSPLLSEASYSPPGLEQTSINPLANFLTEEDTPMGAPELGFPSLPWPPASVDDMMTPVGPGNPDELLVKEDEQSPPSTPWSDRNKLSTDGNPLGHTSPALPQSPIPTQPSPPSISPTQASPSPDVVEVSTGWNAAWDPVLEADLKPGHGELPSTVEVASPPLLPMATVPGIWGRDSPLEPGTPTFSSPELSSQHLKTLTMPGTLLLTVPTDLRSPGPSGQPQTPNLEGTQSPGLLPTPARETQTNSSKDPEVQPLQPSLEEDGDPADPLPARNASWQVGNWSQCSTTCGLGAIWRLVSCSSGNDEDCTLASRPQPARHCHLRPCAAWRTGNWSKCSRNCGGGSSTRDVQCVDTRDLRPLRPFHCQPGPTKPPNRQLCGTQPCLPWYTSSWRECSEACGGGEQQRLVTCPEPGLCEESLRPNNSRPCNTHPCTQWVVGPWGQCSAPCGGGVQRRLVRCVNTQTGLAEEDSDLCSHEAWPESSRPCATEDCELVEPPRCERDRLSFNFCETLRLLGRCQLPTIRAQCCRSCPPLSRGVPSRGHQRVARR
As to the kind of experiment: TMT10 TAILS N-terminomics, HUVEC experiment (process replicates, trypsin/AspN digest). The format is cell-based, human. The note with it: HUVEC TAILS HC; log fold change of N-terminal peptide, Ad-mADAMTS7 EQ over Luc. Summed up:
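Full-length mouse ADAMTS7 (WT or E373Q mutant, C-terminal 3xFLAG) or luciferase was transduced via adenovirus, 50 MOI, into HCA-SMC (SMC1, SMC2) or HUVEC. SMC1: pooled media, technical triplicates 400 ug; SMC2: process triplicates 300 ug; HUVEC: process triplicates 200 ug, bFGF2 10 ng/ml.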
In turn, “ASMT_321 (LSSAGFR; listed as Homo sapiens)” had a logFC.mEQ.over.Luc of −0.39. In turn, “BICD1_280 (NNDDKMNGHIHGPLVKLNGDYR; listed as Homo sapiens)” showed a logFC.mEQ.over.Luc of −0.08. Take “CLU_267 (FQHPPTEFIR; listed as Homo sapiens)”: the logFC.mEQ.over.Luc is reported as −0.08. “CTGF_173 (TVVGPALAAYR; listed as Homo sapiens)” displayed a logFC.mEQ.over.Luc of −0.45. The same measure for “CTGF_174 (VVGPALAAYR; listed as Homo sapiens)”: −0.31; for “FN1_1624 (LVQTAVTTIPAPT; listed as Homo sapiens)”: −0.16. Under “FN1_1743 (WESPQGQVSR; listed as Homo sapiens)” stands −0.19. Substance “LTBP2_129 (QQQPAPR; listed as Homo sapiens)” displayed a logFC.mEQ.over.Luc of −0.49. The same measure for “LTBP2_253 (GEGTLAR; listed as Homo sapiens)”: −0.09. Under “LTBP3_164 (LSTGALPPLAPEG; listed as Homo sapiens)” stands −0.39; under “LTBP3_205 (HAAFLVPLGPGQISA; listed as Homo sapiens)”, −0.13. Turning to “LTBP3_221 (VQAPPPVVNVR; listed as Homo sapiens)”, the logFC.mEQ.over.Luc was −0.39. For “MCFD2_55 (HLEGVINKPEA; listed as Homo sapiens)”, the logFC.mEQ.over.Luc came out at 0.14.

Consider “PSAP_301 (LVEPIKKH; listed as Homo sapiens)”, for which the logFC.mEQ.over.Luc is −0.06. In the case of “PTBP1_376 (AAAAAGR; listed as Homo sapiens)”, the logFC.mEQ.over.Luc came out at 0.06.

Substance “PZP_578 (HAHLQVAAAPQSLCALR; listed as Homo sapiens)” returned a logFC.mEQ.over.Luc of −0.34.

“THBS1_630 (FGQGVEHATANK; listed as Homo sapiens)” showed a logFC.mEQ.over.Luc of −0.01. As for “UQCRH_76 (HGSPNNSERAMRAVGE[Met(O)]CKGPGAAR; listed as Homo sapiens)”, the logFC.mEQ.over.Luc is reported as 0.01.

As for “ZYX_244 (PVSLANTQPR; listed as Homo sapiens)”, the logFC.mEQ.over.Luc was 0.18.
